This is an account of results in article PMC7199863 (The Journal of Cell Biology, 2020).

The target in the assay is T1, FLAG-tagged fragment of CC-afadin (coiled-coil region of afadin, aa 1386-1595) (mouse).
T1 chain: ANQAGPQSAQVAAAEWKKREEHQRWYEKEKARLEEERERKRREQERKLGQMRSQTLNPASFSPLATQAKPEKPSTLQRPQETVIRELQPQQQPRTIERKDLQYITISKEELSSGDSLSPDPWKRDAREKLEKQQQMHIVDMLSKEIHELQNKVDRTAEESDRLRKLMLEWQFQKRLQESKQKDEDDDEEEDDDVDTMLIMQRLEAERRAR
Nature of the assay: sucrose density gradient centrifugation.

B1: αE-catenin fragment MIII-C (aa 509-906) (domain or fragment)
chain: DDFLAVSENHILEDVNKCVIALQEKDVDGLDRTAGAIRGRAARVIHVVTSEMDNYEPGVYTEKVLEATKLLSNTVMPRFTEQVEAAVEALSSDPAQPMDENEFIDASRLVYDGIRDIRKAVLMIRTPEELDDSDFETEDFDVRSRTSVQTEDDQLIAGQSARAIMAQLPQEQKAKIAEQVASFQEEKSKLDAEVSKWDDSGNDIIVLAKQMCMIMMEMTDFTRGKGPLKNTSDVISAAKKIAEAGSRMDKLGRTIADHCPDSACKQDLLAYLQRIALYCHQLNICSKVKAEVQNLGGELVVSGVDSAMSLIQAAKNLMNAVVQTVKASYVASTKYQKSQGMASLNLPAVSWKMKAPEKKPLVKREKQDETQTKIKRASQKKHVNPVQALSEFKAMDSI
In general, stoichiometry N refers to the number of molecules, sites or subunits per partner or assembly. B1: the “stoichiometry N” value came out at 1.
